Legend:
Test in all cases: cell-based or functional assay
WNK3(h) (human) = WNK3(h) (human) (UniProt Q9BYP7)
TBK1(h) (human) = TBK1(h) (human) (UniProt Q9UHD2)
EGFR(L861Q)(h) (human) = EGFR(L861Q)(h) (human) (UniProt P00533)
PKBα(h) (human) = PKBα(h) (human) (UniProt P31749)
c-RAF(h) (human) = c-RAF(h) (human) (UniProt P04049)
PKCζ(h) (human) = PKCζ(h) (human) (UniProt Q05513)
IR(h), activated (human) = IR(h), activated (human) (UniProt P06213)
Plk3(h) (human) = Plk3(h) (human) (UniProt Q9H4B4)
MELK(h) (human) = MELK(h) (human) (UniProt Q14680)
EphA5(h) (human) = EphA5(h) (human) (UniProt P54756)
IRAK1(h) (human) = IRAK1(h) (human) (UniProt P51617)
Ret(V804M)(h) (human) = Ret(V804M)(h) (human) (UniProt P07949)
Snk(h) (human) = Snk(h) (human) (UniProt Q9NYY3)
CSK(h) (human) = CSK(h) (human) (UniProt P41240)
EphB3(h) (human) = EphB3(h) (human) (UniProt P54753)
TrkA(h) (human) = TrkA(h) (human) (UniProt P04629)
MAPK2(h) (human) = MAPK2(h) (human) (UniProt P28482)
Aurora-B(h) (human) = Aurora-B(h) (human) (UniProt Q96GD4)
Ab1(h) (human) = Ab1(h) (human) (UniProt P00519)
CK1γ2(h) (human) = CK1γ2(h) (human) (UniProt P78368)
CK1γ1(h) (human) = CK1γ1(h) (human) (UniProt Q9HCP0)
MKK7β(h) (human) = MKK7β(h) (human) (UniProt O14733)
MAPK1(h) (human) = MAPK1(h) (human) (UniProt P28482)
Fms(Y969C)(h) (human) = Fms(Y969C)(h) (human) (UniProt P07333)
Yes(h) (human) = Yes(h) (human) (UniProt P07947)
PAK3(h) (human) = PAK3(h) (human) (UniProt O75914)
IGF-1R(h) (human) = IGF-1R(h) (human) (UniProt P08069)
PAK6(h) (human) = PAK6(h) (human) (UniProt Q9NQU5)
FGFR2(N549H)(h) (human) = FGFR2(N549H)(h) (human) (UniProt P21802)
FGFR1(V561M)(h) (human) = FGFR1(V561M)(h) (human) (UniProt P11362)
CK2α2(h) (human) = CK2α2(h) (human) (UniProt P19784)
Fgr(h) (human) = Fgr(h) (human) (UniProt P09769)
CK1γ3(h) (human) = CK1γ3(h) (human) (UniProt Q9Y6M4)
TAK1(h) (human) = TAK1(h) (human) (UniProt O43318)
EphA2(h) (human) = EphA2(h) (human) (UniProt P29317)
Plk1(h) (human) = Plk1(h) (human) (UniProt P53350)
GRK5(h) (human) = GRK5(h) (human) (UniProt P34947)
JNK1α1(h) (human) = JNK1α1(h) (human) (UniProt P45983)
CLK2(h) (human) = CLK2(h) (human) (UniProt P49760)
Tie2(R849W)(h) (human) = Tie2(R849W)(h) (human) (UniProt Q02763)

Sequence of EphA5(h) (human) (P54756 595-1037 limits assumed): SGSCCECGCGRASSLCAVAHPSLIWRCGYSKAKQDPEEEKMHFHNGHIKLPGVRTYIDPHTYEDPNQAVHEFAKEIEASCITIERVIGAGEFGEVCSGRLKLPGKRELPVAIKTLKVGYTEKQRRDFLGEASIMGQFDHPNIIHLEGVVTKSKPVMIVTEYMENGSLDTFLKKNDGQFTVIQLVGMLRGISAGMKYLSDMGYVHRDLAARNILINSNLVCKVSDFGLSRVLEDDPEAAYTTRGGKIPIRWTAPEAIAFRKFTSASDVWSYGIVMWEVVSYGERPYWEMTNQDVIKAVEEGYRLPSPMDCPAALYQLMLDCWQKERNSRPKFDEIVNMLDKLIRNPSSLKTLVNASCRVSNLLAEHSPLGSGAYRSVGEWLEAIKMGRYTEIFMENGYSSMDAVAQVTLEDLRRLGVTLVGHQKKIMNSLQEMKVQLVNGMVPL
Sequence of IRAK1(h) (human) (P51617 194-712 limits assumed): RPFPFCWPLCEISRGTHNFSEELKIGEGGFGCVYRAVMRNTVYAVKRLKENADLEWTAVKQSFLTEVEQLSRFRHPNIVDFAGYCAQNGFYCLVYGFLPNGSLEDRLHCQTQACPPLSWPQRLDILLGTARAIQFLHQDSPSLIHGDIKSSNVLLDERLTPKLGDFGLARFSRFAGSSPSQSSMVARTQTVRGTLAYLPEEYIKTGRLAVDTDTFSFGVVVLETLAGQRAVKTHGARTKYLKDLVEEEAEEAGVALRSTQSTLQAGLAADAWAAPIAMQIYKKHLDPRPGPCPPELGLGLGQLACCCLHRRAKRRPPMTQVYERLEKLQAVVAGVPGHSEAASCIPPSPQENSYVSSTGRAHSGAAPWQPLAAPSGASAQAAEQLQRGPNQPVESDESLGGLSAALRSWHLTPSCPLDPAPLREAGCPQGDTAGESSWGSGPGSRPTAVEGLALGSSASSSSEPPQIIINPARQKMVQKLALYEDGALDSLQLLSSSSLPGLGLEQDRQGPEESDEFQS
Sequence of MELK(h) (human) (Q14680 1-340 limits assumed): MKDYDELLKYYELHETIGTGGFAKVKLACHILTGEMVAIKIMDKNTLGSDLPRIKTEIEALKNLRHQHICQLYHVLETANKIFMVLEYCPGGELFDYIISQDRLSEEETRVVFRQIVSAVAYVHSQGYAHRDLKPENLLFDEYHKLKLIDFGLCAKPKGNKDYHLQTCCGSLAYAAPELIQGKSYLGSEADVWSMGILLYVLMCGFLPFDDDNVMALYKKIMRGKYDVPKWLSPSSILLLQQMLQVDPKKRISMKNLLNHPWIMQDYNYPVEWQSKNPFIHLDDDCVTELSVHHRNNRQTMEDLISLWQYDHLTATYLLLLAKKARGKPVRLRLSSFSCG
Sequence of Ret(V804M)(h) (human) (P07949 658-1114 V804M limits assumed): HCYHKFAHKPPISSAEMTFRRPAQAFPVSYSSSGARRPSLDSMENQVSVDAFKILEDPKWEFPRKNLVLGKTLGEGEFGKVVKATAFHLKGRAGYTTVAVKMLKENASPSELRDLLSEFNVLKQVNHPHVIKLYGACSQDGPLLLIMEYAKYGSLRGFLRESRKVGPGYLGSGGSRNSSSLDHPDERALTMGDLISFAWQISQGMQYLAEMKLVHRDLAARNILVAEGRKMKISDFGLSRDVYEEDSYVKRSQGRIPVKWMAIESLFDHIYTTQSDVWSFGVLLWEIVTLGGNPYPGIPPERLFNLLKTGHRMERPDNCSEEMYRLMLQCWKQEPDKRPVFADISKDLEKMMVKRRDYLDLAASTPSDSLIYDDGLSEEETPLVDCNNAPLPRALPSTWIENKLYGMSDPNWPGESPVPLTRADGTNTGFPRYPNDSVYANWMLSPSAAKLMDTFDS
Sequence of IR(h), activated (human) (P06213 1005-1310 limits assumed): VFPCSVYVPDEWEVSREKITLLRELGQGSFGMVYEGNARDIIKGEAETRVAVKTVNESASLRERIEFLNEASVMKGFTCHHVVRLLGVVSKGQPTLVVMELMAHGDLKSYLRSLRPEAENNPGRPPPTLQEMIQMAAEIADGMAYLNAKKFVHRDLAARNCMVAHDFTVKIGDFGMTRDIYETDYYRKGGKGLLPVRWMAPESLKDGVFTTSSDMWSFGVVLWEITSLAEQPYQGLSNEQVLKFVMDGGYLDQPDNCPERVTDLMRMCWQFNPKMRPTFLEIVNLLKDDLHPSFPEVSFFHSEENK
Sequence of CSK(h) (human) (P41240 whole entry): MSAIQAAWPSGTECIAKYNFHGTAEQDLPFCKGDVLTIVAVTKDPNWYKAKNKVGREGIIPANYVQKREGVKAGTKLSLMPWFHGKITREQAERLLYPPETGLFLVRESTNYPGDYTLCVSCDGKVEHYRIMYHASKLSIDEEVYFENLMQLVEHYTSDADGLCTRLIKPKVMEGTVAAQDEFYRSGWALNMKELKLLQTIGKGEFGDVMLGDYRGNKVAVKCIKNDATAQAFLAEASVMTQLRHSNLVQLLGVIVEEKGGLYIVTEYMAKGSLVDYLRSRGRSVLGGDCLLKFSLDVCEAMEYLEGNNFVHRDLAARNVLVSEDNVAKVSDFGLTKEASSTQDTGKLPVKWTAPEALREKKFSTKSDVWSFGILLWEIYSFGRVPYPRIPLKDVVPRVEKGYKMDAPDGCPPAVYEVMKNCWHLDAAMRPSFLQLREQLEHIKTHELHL
Sequence of Snk(h) (human) (Q9NYY3 whole entry): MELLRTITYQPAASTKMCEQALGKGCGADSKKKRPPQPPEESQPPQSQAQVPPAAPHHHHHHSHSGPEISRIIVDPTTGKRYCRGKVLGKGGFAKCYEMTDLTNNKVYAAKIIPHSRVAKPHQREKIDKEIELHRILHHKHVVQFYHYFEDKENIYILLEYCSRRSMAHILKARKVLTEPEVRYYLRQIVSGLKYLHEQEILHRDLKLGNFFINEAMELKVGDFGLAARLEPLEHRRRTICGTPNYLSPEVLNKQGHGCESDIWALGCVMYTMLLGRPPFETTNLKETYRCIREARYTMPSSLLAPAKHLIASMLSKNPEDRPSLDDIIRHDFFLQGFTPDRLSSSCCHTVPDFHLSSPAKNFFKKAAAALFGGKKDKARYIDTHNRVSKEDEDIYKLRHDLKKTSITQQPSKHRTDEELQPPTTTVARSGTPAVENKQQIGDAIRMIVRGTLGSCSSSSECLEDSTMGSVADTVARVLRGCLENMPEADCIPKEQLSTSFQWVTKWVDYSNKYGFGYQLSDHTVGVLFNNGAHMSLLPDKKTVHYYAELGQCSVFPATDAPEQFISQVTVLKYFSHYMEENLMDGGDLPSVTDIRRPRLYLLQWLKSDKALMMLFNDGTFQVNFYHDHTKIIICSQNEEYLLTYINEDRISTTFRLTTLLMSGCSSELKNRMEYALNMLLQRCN
Sequence of WNK3(h) (human) (Q9BYP7 1-434 limits assumed): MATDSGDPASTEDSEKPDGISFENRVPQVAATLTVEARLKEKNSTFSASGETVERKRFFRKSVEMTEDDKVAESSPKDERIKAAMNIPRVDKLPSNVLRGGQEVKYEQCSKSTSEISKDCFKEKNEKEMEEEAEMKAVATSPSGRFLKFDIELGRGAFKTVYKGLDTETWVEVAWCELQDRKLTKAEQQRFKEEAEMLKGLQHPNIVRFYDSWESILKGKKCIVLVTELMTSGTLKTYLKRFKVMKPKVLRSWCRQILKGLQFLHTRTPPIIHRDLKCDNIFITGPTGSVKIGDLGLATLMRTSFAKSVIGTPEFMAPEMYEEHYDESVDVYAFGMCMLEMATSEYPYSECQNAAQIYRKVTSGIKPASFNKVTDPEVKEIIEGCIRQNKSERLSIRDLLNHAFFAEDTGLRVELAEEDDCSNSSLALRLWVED
Sequence of PKBα(h) (human) (P31749 whole entry): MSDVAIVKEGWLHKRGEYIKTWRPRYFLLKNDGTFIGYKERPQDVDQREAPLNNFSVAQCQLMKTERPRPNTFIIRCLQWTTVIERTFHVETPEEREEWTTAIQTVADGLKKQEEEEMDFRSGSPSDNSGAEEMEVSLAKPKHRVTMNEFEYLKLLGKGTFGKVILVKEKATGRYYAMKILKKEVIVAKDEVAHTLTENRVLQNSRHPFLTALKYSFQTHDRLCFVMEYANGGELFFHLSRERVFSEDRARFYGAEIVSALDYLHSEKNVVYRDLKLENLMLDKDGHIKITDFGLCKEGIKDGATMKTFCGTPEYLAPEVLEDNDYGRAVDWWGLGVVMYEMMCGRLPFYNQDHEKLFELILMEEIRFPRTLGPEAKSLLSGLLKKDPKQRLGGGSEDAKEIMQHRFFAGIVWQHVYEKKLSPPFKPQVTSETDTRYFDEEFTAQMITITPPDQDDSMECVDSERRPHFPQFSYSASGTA
Sequence of Aurora-B(h) (human) (Q96GD4 whole entry): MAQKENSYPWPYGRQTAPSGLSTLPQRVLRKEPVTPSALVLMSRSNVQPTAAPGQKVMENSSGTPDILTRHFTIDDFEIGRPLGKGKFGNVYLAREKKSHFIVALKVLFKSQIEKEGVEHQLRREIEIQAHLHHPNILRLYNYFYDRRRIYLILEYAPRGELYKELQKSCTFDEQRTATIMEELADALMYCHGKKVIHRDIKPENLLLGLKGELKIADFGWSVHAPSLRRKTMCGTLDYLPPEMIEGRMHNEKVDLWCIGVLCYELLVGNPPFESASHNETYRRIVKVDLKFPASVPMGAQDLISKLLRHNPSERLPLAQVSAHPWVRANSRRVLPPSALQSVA
Sequence of EphB3(h) (human) (P54753 581-998 limits assumed): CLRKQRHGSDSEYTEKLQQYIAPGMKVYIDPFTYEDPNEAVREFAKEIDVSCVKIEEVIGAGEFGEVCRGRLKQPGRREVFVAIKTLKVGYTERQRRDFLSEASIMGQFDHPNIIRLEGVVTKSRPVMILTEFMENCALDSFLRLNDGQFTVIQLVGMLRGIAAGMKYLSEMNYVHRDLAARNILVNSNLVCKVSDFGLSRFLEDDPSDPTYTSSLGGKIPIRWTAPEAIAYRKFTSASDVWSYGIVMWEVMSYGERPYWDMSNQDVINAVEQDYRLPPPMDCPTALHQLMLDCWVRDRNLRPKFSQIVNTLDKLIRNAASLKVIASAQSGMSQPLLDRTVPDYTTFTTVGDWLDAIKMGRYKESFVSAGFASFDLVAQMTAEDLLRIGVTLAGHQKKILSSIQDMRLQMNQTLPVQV

| Substance | % activity (WNK3(h) (human)) [%] | % activity (TBK1(h) (human)) [%] | % activity (EGFR(L861Q)(h) (human)) [%] | % activity (PKBα(h) (human)) [%] | % activity (c-RAF(h) (human)) [%] | % activity (PKCζ(h) (human)) [%] | % activity (IR(h), activated (human)) [%] | % activity (Plk3(h) (human)) [%] | % activity (MELK(h) (human)) [%] | % activity (EphA5(h) (human)) [%] | % activity (IRAK1(h) (human)) [%] | % activity (Ret(V804M)(h) (human)) [%] | % activity (Snk(h) (human)) [%] | % activity (CSK(h) (human)) [%] | % activity (EphB3(h) (human)) [%] | % activity (TrkA(h) (human)) [%] | % activity (MAPK2(h) (human)) [%] | % activity (Aurora-B(h) (human)) [%] | % activity (Ab1(h) (human)) [%] | % activity (CK1γ2(h) (human)) [%] | also measured |
| --- | --- | --- | --- | --- | --- | --- | --- | --- | --- | --- | --- | --- | --- | --- | --- | --- | --- | --- | --- | --- | --- |
| MMI-0500 (peptide) | 9 | 16 | 15 | 30 | 19 | 7 | 90 | 122 | 0 | 42 | 5 | 36 | 122 | 2 | 79 | 24 | 60 | 5 | 16 | – | – |
| MMI-0200 (peptide) | 97 | 98 | 74 | 110 | 115 | 98 | 105 | 107 | 59 | 123 | 101 | 105 | 109 | 33 | 128 | – | 105 | 166 | 107 | 104 | % activity (CK1γ1(h) (human)): 98%; % activity (MKK7β(h) (human)): 117%; % activity (MAPK1(h) (human)): 97%; % activity (Fms(Y969C)(h) (human)): 88%; % activity (Yes(h) (human)): 93%; % activity (PAK3(h) (human)): 50%; % activity (IGF-1R(h) (human)): 49%; % activity (PAK6(h) (human)): 105%; % activity (FGFR2(N549H)(h) (human)): 104%; % activity (FGFR1(V561M)(h) (human)): 72%; % activity (CK2α2(h) (human)): 88%; % activity (Fgr(h) (human)): 71%; % activity (CK1γ3(h) (human)): 96%; % activity (TAK1(h) (human)): 124%; % activity (EphA2(h) (human)): 95%; % activity (Plk1(h) (human)): 128%; % activity (GRK5(h) (human)): 135%; % activity (JNK1α1(h) (human)): 106%; % activity (CLK2(h) (human)): 97%; % activity (Tie2(R849W)(h) (human)): 89% |
| MMI-0100 (peptide) | 100 | 106 | 53 | 140 | 97 | 82 | 127 | 107 | 74 | 110 | 97 | 92 | 94 | 70 | 109 | 74 | 98 | 94 | 136 | 119 | % activity (CK1γ1(h) (human)): 110%; % activity (MKK7β(h) (human)): 137%; % activity (MAPK1(h) (human)): 108%; % activity (Fms(Y969C)(h) (human)): 126%; % activity (Yes(h) (human)): 49%; % activity (IGF-1R(h) (human)): 102%; % activity (PAK6(h) (human)): 121%; % activity (FGFR2(N549H)(h) (human)): 95%; % activity (FGFR1(V561M)(h) (human)): 108%; % activity (CK2α2(h) (human)): 104%; % activity (Fgr(h) (human)): 54%; % activity (CK1γ3(h) (human)): 105%; % activity (TAK1(h) (human)): 116%; % activity (EphA2(h) (human)): 58%; % activity (Plk1(h) (human)): 109%; % activity (GRK5(h) (human)): 117%; % activity (JNK1α1(h) (human)): 91%; % activity (CLK2(h) (human)): 88%; % activity (Tie2(R849W)(h) (human)): 102% |

— patent US20160200782A1
